Laboratory results: patent US9012407B2, “Therapies which act on neuropeptide S receptors” (The Regents of the University of California, priority 2004, dated 2015)
Numbering of substitutions follows the chain as printed. Where no end group is shown, it is not given here. The star is where a group is joined. 125I = radioactive iodine-125 label on the tyrosine, [125I]*

Legend:
NPSR WT = biological target: T1, NPSR WT (Homo sapiens, UniProt Q6W5P4); test: Intracellular Ca2+ mobilization (FLIPR) in HEK 293 cells stably expressing NPSR WT; format: cell-based; conditions: for agonist activity, Ca2+ mobilization: individual HEK 293 clone; for agonist potency compared to the human peptide: Ca2+ mobilization
T1 construct: The primary structure of the wildtype NPSR (NPSR WT) is identical to isoform A of GPRA; expressed in transfected cells
T1 sequence (Q6W5P4 1-371): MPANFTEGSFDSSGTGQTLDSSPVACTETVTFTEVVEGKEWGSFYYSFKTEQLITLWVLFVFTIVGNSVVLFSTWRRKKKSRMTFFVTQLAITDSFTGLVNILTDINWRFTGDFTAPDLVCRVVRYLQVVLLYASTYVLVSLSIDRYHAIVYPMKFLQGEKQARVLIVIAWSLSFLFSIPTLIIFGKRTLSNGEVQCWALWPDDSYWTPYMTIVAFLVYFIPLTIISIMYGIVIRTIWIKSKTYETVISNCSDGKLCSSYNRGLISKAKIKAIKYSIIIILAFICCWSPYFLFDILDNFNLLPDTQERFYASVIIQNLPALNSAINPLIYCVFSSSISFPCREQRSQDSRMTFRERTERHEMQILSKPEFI
Protocol: (§1) Changes of agonist-induced intracellular Ca^2+ were measured using the FLIPR technology as described before (5, 6). NPS and truncated NPS peptides were a gift from Phoenix Pharmaceuticals (Belmont, Calif.). Dose-response curves were calculated using GraphPad Prism (Graph Pad, San Diego). Mean EC50 values of populations of stable clones expressing either wildtype or mutant NPSR were compared using unpaired t-test and p<0.05 was considered significant.
(§2) Two cells lines expressing similar levels (measured by radioligand binding; see below) of either NPSR WT or NPSR Ile were chosen for detailed analyses of pharmacological parameters. […] In order to investigate whether this tenfold increase in agonist potency at NPSR lie was a general property of the receptor protein we compared a large number of stable clones expressing either NPSR WT or NPSR Ile^107 by establishing dose-response curves for each construct and calculating mean EC50 values for the populations.

NPSR Ile^107 = biological target: T2, NPSR Ile^107 (Homo sapiens, UniProt Q6W5P4, N107I); test: Intracellular Ca2+ mobilization (FLIPR) in HEK 293 cells stably expressing NPSR Ile107; format: cell-based; conditions: for agonist activity, Ca2+ mobilization: individual HEK 293 clone; for agonist potency compared to the human peptide: Ca2+ mobilization
T2 construct: The Ile^107 isoform of NPSR was generated by PCR using synthetic oligonucleotides and the Quik Change Site-Directed Mutagenesis kit from Stratagene; expressed in transfected cells
T2 sequence (Q6W5P4 1-371 N107I): T1 sequence (Q6W5P4 1-371) with N107I
Protocol: as §1, §2

human NPSR = biological target: T3, human NPSR (Homo sapiens, UniProt Q6W5P4); test: Mobilization of intracellular Ca2+ (FLIPR) in HEK 293T cells stably expressing human NPSR; format: cell-based; conditions: for EC50: HEK 293T cells stably expressing human NPSR, read-out: EC50 for mobilization of [Ca2+]i
T3 construct: This receptor protein is identical to the NPSR that we have studied extensively for its pharmacology; expressed in transfected cells
T3 sequence (Q6W5P4 1-371): T1 sequence (Q6W5P4 1-371)
Protocol: Cell lines stably expressing human NPSR in both Chinese hamster ovary (CHO) cells and human embryonic kidney 293 T cells (HEK 293T) were used to define the pharmacological characteristics of NPS. […] HEK 293T cells and CHO dhfr(−) cells were transfected with the human NPSR cDNA cloned into pcDNA 3.1(+) using LipofectAmine. Stable clones were selected with 800 mg/l G418 and tested for mobilization of intracellular Ca^2+ with 100 nM NPS (generous gift of Phoenix Pharmaceuticals, Belmont, Calif.). Changes in intracellular Ca^2+ were measured in a fluorometric imaging plate reader system (FLIPR, Molecular Devices) as described before(Saito et al., 1999). Dose response curves for agonist activation were calculated from peak fluorescence values of triplicate incubations and EC50 values were calculated with Prism software (GraphPad, San Diego, Calif.).

[1] = single i.c.v. injection; cited from earlier work
rodents = conditions: cited from earlier work
[2] = biological target: human Neuropeptide S receptor, wildtype (NPSR WT) (human) (UniProt Q6W5P4); test: cell-based or functional assay
[3] = biological target: T4, human Neuropeptide S receptor Ile107 isoform (NPSR Ile107) (human, UniProt Q6W5P4 1-371); test: saturation binding of [125I] Y10-NPS to stable clones, intact cells, average of n=4 clones
T4 construct: also called NPSR lie; Asn107Ile variant
T4 sequence: T1 sequence (Q6W5P4 1-371) with N107I

[4] = biological target: T5, human Neuropeptide S receptor, wildtype (NPSR WT) (human, UniProt Q6W5P4 1-371); test: as above
T5 construct: Stably expressed in CHO dhfr(-), HEK 293T or HEK 293 cells; also called hNPSR; human NPSR
T5 sequence: T1 sequence (Q6W5P4 1-371)

[5] = biological target: T5, human Neuropeptide S receptor, wildtype …; test: saturation radioligand binding to intact CHO cells stably expressing hNPSR
Protocol: (§3) The monoiodinated form of Y^10-NPS was used as a radioligand in receptor binding experiments. […] No specific binding was detected in mock-transfected CHO cells.
(§4) CHO cells stably expressing human NPSR were seeded into 24-well plates and cultured for 48 hours. […] Nonspecific binding was determined in the presence of 1 µM unlabeled human NPS. The binding assay was carried out as described (Sakurai et al., 1998). In brief, cells were washed with PBS first and then incubated with radioligand with or without unlabeled NPS peptide in DMEM medium containing 0.1% bovine serum albumin at 20° C. for 1.5 h. Cells were washed 5 times with cold PBS and lysed with 1 N NaOH. Bound radioactivity was counted in a MicroBeta liquid scintillation counter (EG&G Wallac, Gaithersburg, Md.) and corrected for counting efficiency. Data from triplicate incubations were analyzed using PRISM.

[6] = biological target: T4, human Neuropeptide S receptor Ile107 …; test: saturation binding of [125I] Y10-NPS to stable clones, intact cells
[7] = biological target: T5, human Neuropeptide S receptor, wildtype …; test: as above
[8] = biological target: human Neuropeptide S receptor C-terminal splice variant (NPSR C-alt) (human), Q6W5P4; test: cell-based or functional assay
[9] = biological target: T4, human Neuropeptide S receptor Ile107 …; test: cell-based or functional assay
[10] = biological target: T5, human Neuropeptide S receptor, wildtype …; test: cell-based or functional assay
[11] = biological target: T5, human Neuropeptide S receptor, wildtype …; test: displacement of 0.15 nM [125I] Y10-NPS from CHO cells stably expressing hNPSR by unlabeled human NPS
Protocol: as §3, §4

NPS 4-20: human NPS fragment with the three amino-terminal amino acids deleted (NGVGTGMKKTSFQRAKS)
agonist activity, Ca2+ mobilization (NPSR WT): completely abolished agonist activity
agonist activity, Ca2+ mobilization (NPSR Ile^107): completely abolished agonist activity

NPS 1-10: human NPS fragment, residues 1-10, after deletion of the two lysines at positions 11 and 12 (SFRNGVGTGM)
agonist activity, Ca2+ mobilization (NPSR WT): full agonist activity
agonist activity, Ca2+ mobilization (NPSR Ile^107): full agonist activity

H-SFRNGVGTGYKKTSFQRAKS-OH [Human Y^10-NPS]
agonist activity (human NPSR; human NPSR, Ca2+ mobilization): full agonist activity

Hcrt/Ox: neuropeptide hypocretin 1/orexin A, literature comparison (QPLPDCCRQKTCSCRLYELLHGAGNHAAGILTL; ends and bridges not checked; cysteine pairing not given here; UniProt O43612 34-66, looked up)
duration of arousal [1]: 2 to 3 h
effect on anxiety-like behavior (rodents): no effect

rat Neuropeptide S (from UniProt P0C0P7 70-89)
EC50 for mobilization of [Ca2+]i, HEK 293T cells stably expressing human NPSR [2]: 3.2 nM

mouse Neuropeptide S (from UniProt P0C0P8 70-89)
EC50 for mobilization of [Ca2+]i, HEK 293T cells stably expressing human NPSR [2]: 3 nM

NPS 1-12: carboxy-terminally truncated fragment of human NPS, residues 1-12 (SFRNGVGTGMKK)
antagonist activity against activation by NPS 1-20 (NPSR WT): failed to block activation
agonist activity, Ca2+ mobilization (NPSR WT): almost completely lost agonist activity
antagonist activity against activation by NPS 1-20 (NPSR Ile^107): failed to block activation
agonist activity, Ca2+ mobilization (NPSR Ile^107): full, but weakly potent, agonist

SFRNGVGSGVKKTSFRRAKQ [rat NPS]
agonist potency compared to the human peptide (NPSR WT): slightly more potent
agonist potency compared to the human peptide (NPSR Ile^107): slightly more potent
EC50 (human NPSR): 3.2 ± 1.1 nM

SFRNGVGSGAKKTSFRRAKQ [mouse NPS]
agonist potency compared to the human peptide (NPSR WT): slightly more potent
agonist potency compared to the human peptide (NPSR Ile^107): slightly more potent
EC50 (human NPSR): 3 ± 1.3 nM

B1: [125I] Y10-hNPS (monoiodinated human Y10-NPS radioligand) (peptide)
peptide: SFRNGVGTGY(125I)KKTSFQRAKS
modifications: also: monoiodinated with 125I (chloramine T)
notes: Human NPS in which the residue at position 10 is replaced by tyrosine, then radioiodinated; also called Y10-NPS; the radioligand
Kd [3]: 0.403 nM
Kd [4]: 0.347 nM
Kd [5]: 0.33 nM
Kd [6]: 0.17 to 0.4 nM
Kd [7]: 0.2 to 0.45 nM

B2: human Neuropeptide S (hNPS) (peptide)
peptide: SFRNGVGTGMKKTSFQRAKS-OH
notes: 20-residue mature peptide with free C-terminus (-OH); also called human NPS; NPS 1-20
EC50, CRE-luciferase reporter, transiently transfected HEK 293 cells [8]: 146 nM
EC50, CRE-luciferase reporter, transiently transfected HEK 293 cells [9]: 17.3 nM
EC50, MAPK phosphorylation, stable HEK cells [9]: 0.32 nM
EC50, cAMP formation, stable HEK clone [9]: 3.45 nM
EC50, intracellular free Ca2+, single stable HEK 293 clone [9]: 1.4 nM
mean EC50, NPS-induced CRE-luciferase reporter gene expression, n=21 stable HEK clones [9]: 0.63 nM
mean EC50, NPS-induced mobilization of intracellular Ca2+, n=21 stable clones [9]: 1.01 nM
EC50, CRE-luciferase reporter, transiently transfected HEK 293 cells [10]: 76.6 nM
EC50, MAPK phosphorylation, stable HEK cells [10]: 1.23 nM
EC50, cAMP accumulation, stable HEK clone [10]: 31.9 nM
EC50, increase in intracellular Ca2+ in cells stably expressing NPSR WT [10]: 5 to 10 nM
EC50, intracellular free Ca2+, single stable HEK 293 clone [10]: 12.4 nM
EC50 for mobilization of [Ca2+]i, HEK 293T cells stably expressing human NPSR [10]: 9.4 nM
mean EC50, NPS-induced CRE-luciferase reporter gene expression, n=7 stable HEK clones [10]: 45.1 nM
mean EC50, NPS-induced mobilization of intracellular Ca2+, n=16 stable clones [10]: 13 nM
IC50 [11]: 0.42 nM

SFRNGVGTGYKKTSFQRAKS [Human Y10-NPS (unlabeled)]
EC50, agonist activity (Ca2+ mobilization, data not shown) [10]: 6.7 nM
